Laboratory results published in patent US20160130552A1.

Biological target: RGD-recognizing receptors of monocytes
Assay: cell-based or functional assay

decrease in long-duration monocyte-platelet interactions under flow: 44%
Binder: RGDS [Small RGD peptides containing the amino-acid sequence Arg-Gly-Asp-Ser]
